According to PMC2712087 (PLoS Pathogens, 2009):

What was measured:
His-p53 wild-type = molecular target: T1, His-p53 wild-type (human, UniProt P04637 1-393); assay: pull-down; details: both partners purified
T1 construct: also called His-tagged p53; WT p53; source: E. coli, purified (Ni-NTA agarose); not shown: His, N-terminal, kept

[1] = molecular target: T2, FLAG-p53 wild type, from 293T cells (human, UniProt P04637 1-393); assay: pull-down; details: both partners purified
T2 construct: also called FLAG-p53 (WT); p53 protein (WT); source: 293T, transfected, with or without ionizing radiation (20 Gy), purified on anti-FLAG antibody resin

B1: purified recombinant BZLF1 protein (natural protein)
chain: MMDPNSTSEDVKFTPDPYQVPFVQAFDQATRVYQDLGGPSQAPLPCVLWPVLPEPLPQGQLTAYHVSTAPTGSWFSAPQPAPENAYQAYAAPQLFPVSDITQNQQTNQAGGEAPQPGDNSTVQTAAAVVFACPGANQGQQLADIGVPQPAPVAAPARRTRKPQQPESLEECDSELEIKRYKNRVASRKCRAKFKQLLQHYREVAAAKSSENDRLRLLLKQMCPSLDVDSIIPRTPDVLHEDLLNF
notes: also called EBV BZLF1 protein; source: Hi-Five cells infected with recombinant baculovirus AcBZLF1, purified (extracted from nuclei with 0.6 M NaCl; purity more than 90%)
His-p53 wild-type
  binding result: binds
[1]
  binding result: binds
